Data published in patent US6057123, “Stem cell inhibiting proteins” (British Biotech Pharmaceuticals Limited, dated 2000).
Positions count from the first letter of the chain named.

B1: LD78 Lys44>Glu Arg45>Gln (Mutant 2) (ligand)
chain: SLAADTPTACCFSYTSRQIPQNFIADYFETSSQCSKPGVIFLTEQSRQVCADPSEEWVQKYVSDLELSA
B2: LD78 Arg17>Ser (Mutant 5) (ligand)
chain: B1 chain with R17S, E44K, Q45R
B3: LD78 Asp26>Ala (Mutant 10) (ligand)
chain: B1 chain with D26A, E44K, Q45R
B4: LD78 Phe12>Gln (Mutant 11) (ligand)
chain: B1 chain with F12Q, E44K, Q45R
B5: LD78 Phe28>Glu Arg47>Glu (Mutant 26) (ligand)
chain: B1 chain with F28E, E44K, Q45R, R47E
B6: LD78 Glu29>Arg (Mutant 28) (ligand)
chain: B1 chain with E29R, E44K, Q45R
B7: LD78 Arg17>Ser Gln18>Glu (Mutant 30) (ligand)
chain: B1 chain with R17S, Q18E, E44K, Q45R
B8: LD78 Leu-Ser-Ala-Ser1>Pro Gly38>Ser Ser46>Gly (Mutant 35) (ligand)
chain: LSAPLAADTPTACCFSYTSRQIPQNFIADYFETSSQCSKPSVIFLTKRGRQVCADPSEEWVQKYVSDLELSA
B9: LD78 Asp5>Ser (Mutant 37) (ligand)
chain: B1 chain with D5S, E44K, Q45R
B10: LD78 Ile24>Ala (Mutant 38) (ligand)
chain: B1 chain with I24A, E44K, Q45R
B11: LD78 Lys44>Ser (Mutant 42) (ligand)
chain: B1 chain with E44S, Q45R
B12: LD78 Glu66>Ser (Mutant 52) (ligand)
chain: B1 chain with E44K, Q45R, E66S
B13: LD78 Ser1>Ala (Mutant 54) (ligand)
chain: B1 chain with S1A, E44K, Q45R
B14: LD78 Ser13>Ala (Mutant 62) (ligand)
chain: B1 chain with S13A, E44K, Q45R
B15: LD78 Tyr27>Ala (Mutant 66) (ligand)
chain: B1 chain with Y27A, E44K, Q45R
B16: LD78 Ser35>Ala (Mutant 68) (ligand)
chain: B1 chain with S35A, E44K, Q45R
B17: human LD78 (wild type, recombinant, expressed from a synthetic gene in yeast) (ligand)
chain: B1 chain with E44K, Q45R
B18: LD78 Ile19>Ala (Mutant 80) (ligand)
chain: B1 chain with I19A, E44K, Q45R
B19: LD78 Val39>Ala (Mutant 91) (ligand)
chain: B1 chain with V39A, E44K, Q45R

Biological target: LD78 receptor on the murine stem cell line FDCP cell mix (A4 cells) (murine)
Test: displacement of 125I-LD78 from FDCP-mix A4 cells; % of wild-type activity based on IC50

Compared with B1, B2 is higher in Receptor Binding % WT: 5 % WT for the first, 25 % WT for the second.

Going from B3 to B4, the Receptor Binding % WT falls from 77.4 % WT to 34 % WT.

Going from B5 to B6, the Receptor Binding % WT rises from 1 % WT to 7.7 % WT.

First: B7
Second: B8
The Receptor Binding % WT of the first is higher: 4.2 % WT for the first, 3 % WT for the second.

Going from B9 to B10, the Receptor Binding % WT rises from 45 % WT to 50 % WT.

Compared with B11, B12 is higher in Receptor Binding % WT: 18 % WT for the first, 162 % WT for the second.

Going from B13 to B14, the Receptor Binding % WT falls from 145 % WT to 66 % WT.

First: B15
Second: B16
The Receptor Binding % WT of the first is lower: 47 % WT for the first, 125 % WT for the second.

With B17 the Receptor Binding % WT was 100 % WT.

Biological target: the molecule itself
Test: self-association; sedimentation equilibrium AUC, 150 mM PBS pH7.4

B18: no binding (tested: 0.5 mg/ml).
B19: no binding (tested: 0.5 mg/ml).
